In patent publication US20250270343A1 (Alector, published 2025):

T1: full-length untagged human GPNMB expressed on cells (human, UniProt Q14956 23-572)
T1 construct: also used here for GPNMB on human monocyte-derived macrophages in the functional assays; also called huGPNMB; Freestyle293-huGPNMB+
T1 sequence: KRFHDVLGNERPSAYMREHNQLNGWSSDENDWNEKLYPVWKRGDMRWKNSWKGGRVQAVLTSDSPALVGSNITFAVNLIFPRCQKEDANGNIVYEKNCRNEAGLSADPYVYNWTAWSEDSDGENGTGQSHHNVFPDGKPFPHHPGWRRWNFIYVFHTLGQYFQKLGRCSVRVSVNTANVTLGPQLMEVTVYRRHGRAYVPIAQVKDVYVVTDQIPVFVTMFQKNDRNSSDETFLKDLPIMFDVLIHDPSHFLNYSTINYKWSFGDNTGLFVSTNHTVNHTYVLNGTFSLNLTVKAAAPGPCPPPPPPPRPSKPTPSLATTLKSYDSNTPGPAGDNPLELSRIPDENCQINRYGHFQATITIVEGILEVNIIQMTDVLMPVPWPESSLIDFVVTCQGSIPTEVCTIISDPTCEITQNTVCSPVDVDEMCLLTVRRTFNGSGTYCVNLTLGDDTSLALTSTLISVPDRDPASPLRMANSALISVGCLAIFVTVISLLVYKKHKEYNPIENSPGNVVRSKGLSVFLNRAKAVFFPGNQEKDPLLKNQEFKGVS

T2: mouse GPNMB endogenously expressed on B16F10 cells (mouse, UniProt Q99P91 23-574)
T2 construct: whole, on cells; also called moGPNMB
T2 sequence (looked up): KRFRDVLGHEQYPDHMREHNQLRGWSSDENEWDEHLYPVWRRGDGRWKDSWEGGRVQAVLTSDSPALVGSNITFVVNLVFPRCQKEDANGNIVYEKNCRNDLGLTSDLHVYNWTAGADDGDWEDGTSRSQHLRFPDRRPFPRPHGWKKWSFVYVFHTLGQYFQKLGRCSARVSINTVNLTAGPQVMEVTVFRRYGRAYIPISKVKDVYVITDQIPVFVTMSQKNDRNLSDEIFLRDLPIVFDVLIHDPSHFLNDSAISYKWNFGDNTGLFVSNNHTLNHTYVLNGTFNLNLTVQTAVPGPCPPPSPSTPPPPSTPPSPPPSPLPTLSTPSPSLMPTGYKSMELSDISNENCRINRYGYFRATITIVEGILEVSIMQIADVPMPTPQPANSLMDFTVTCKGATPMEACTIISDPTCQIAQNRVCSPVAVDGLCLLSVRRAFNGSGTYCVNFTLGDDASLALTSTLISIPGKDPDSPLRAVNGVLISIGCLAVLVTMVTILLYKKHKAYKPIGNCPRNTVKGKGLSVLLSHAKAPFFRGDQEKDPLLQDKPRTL


Columns and labels:
[1] = biological target: T1, full-length untagged human GPNMB …; assay: FACS, FS293-huGPNMB+ cells
Experimental: Recombinant anti-GPNMB antibodies of the present disclosure were examined for their ability to bind human and/or mouse GPNMB expressed on Freestyle293-huGPNMB+ or B16F10 cells, respectively. B16F10 cells are a murine melanoma cell line from a C57BL/6J mouse that endogenously express high levels of mouse GPNMB. The antibodies were also tested for their ability to bind to a human macrophage cell line (U937 cells) engineered to express human GPNMB. Cells were harvested, plated at 100,000 cells/well in a 96-well round bottom plate, and incubated in 100 μl FACS buffer (PBS containing 2% FBS, 2 mM EDTA) containing anti-GPNMB monoclonal antibodies of the present disclosure for 30 minutes on ice. Cells were then washed and incubated in 100 ul FACS buffer containing 1 μg/ml APC-conjugated anti-human IgG secondary antibody for 30 minutes in ice. Cells were washed twice in cold FACS buffer and acquired on a BD FACS Canto. Data analysis and calculation of MFI values was performed with FlowJo (TreeStar) software version 10.0.7.
Importantly, several anti-GPNMB antibodies of the present disclosure also bound to the human macrophage cell line U937 cells engineered to express human GPNMB (U937/huGPNMB+) (FIG. 2C). In FIG. 2C, the first data point in each pair corresponds to U937/huGPNMB+ cells, and the second data point in each pair corresponds to U937/huGPNMB− cells. No anti-GPNMB antibodies bound to U937 cells deficient in human GPNMB expression (U937/huGPNMB−).

[2] = biological target: T2, mouse GPNMB endogenously expressed on …; assay: FACS titration, B16F10 cells
Experimental: (§1) Cell-based binding measurements were also performed to measure the apparent affinities of anti-GPNMB antibodies of the present disclosure to cell-surface expressed GPNMB. Serial dilutions of the monoclonal anti-GPNMB antibodies were added to 100,000 Freestyle293-huGPNMB+ or B16F10 cells and allowed to achieve binding equilibrium at 4° C. After addition of fluorescently labeled secondary antibody and brief washing steps, MFI values as a function of titrated antibody concentration was recorded via FACS analysis. Curves were fit using nonlinear regression analysis with Graphpad Prism 6 software.

[3] = biological target: T1, full-length untagged human GPNMB …; assay: FACS titration, FS293-huGPNMB+ cells
Experimental: as §1

[4] = biological target: T1, full-length untagged human GPNMB …; assay: cell-based or functional assay

Binder	MFI fold over background [1] [fold]	EC50 [2] [nM]	EC50 [3] [nM]	CD40 (FoB) [4] [FoB]	CD80 (FoB) [4] [FoB]	GCase (FoB) [4] [FoB]	PDL1 (FoB) [4] [FoB]
anti-GPNMB antibody GPN-41 (antibody, human IgG1, V domains shown, chimeric) VH: QLQLQQSGTEVVKPGASVKIPCKASGYAFSSYWMNWVKQRPGKGLEWIGQIYPGDGDTNDNGKFEGKATLTVDKSSNTAYIQLSSLTSEDSAVYFCARSPLHLRGSMDYWGQGTSVTVSS VL: SIVMTQTPKFLLVSAGDRVTITCKASQSVSNDVAWFQQKPGQSPELLIYSASNRYTGVPDRFTASGYGTDFTFTISAVQAEDLAVYFCQQNYYSPFTFGGGTRLEIK	23.6	2.62	3.88	–	–	–	–
anti-GPNMB antibody GPN-65 (antibody, human IgG1, V domains shown, chimeric) VH: QLQLQQSGTEVVKPGASVKIPCKASGYAFSSYWMNWVKQRPGKGLEWIGQIYPGDGDTNDNGKFEGKATLTVDKSSNTAYIQLSSLTSEDSAVYFCARSPLHLRGSMDYWGQGTSVTVSS VL: SIVMTQTPKFLLVSAGDRVTITCKASQSVSNDVAWFQQKPGQSPELLIYSASNRYTGVPDRFTGSGYGTDFTFTISTVQAEDLAVYFCQQNYYSPFTFGGGTRLEIK	8.1	3.23	2.6	–	–	–	–
anti-GPNMB antibody GPN-42 (antibody, human IgG1, V domains shown, chimeric) VH: DVKLVESGEDLVKPGGSLKLSCAASGFTFSSYAMSWVRQTPEKRLEWVAYISSGGDYIYYADTVKGRFTISRDNARNTLYLQMSSLKSEDTAMYYCTRDRYYDYDVRDYYTMDYWGQGTSVTVSS VL: DVMMTQTPLSLPVSLGDQASISCRSSQSLVHSNGNTYLHWFLQKPGQSPKLLIFRVSNRFSGVPDRFSGRGSGTDFTLKISRVEAEDLGVYFCSQTTHVPRTFGGGTTLEIK	–	76.5	–	–	–	–	–
anti-GPNMB antibody GPN-43 (antibody, human IgG1, V domains shown, chimeric) VH: EVQLQQSGPELVKPGASVKISCKASGYTFTDYYMNWVRQSHGKSLEWIGDINPYHGGSTYNQKIKVKATLTVDKSSSTAYMELRSLTSEDSAVYYCARNWPYFDYWGQGTTLTVSS VL: DIQMTQSPASLSASVGETVTITCRASENIYSFLVWYQQKQGKSPQLLVYNAKTLAEGVPSRFSGSGSGTQFSLKISSLQPEDFGSYYCQHHFGTPPYTFGGGTKLEIK	–	36.2	–	1.06	1.08	1.01	1.05
anti-GPNMB antibody GPN-35 (antibody, human IgG1, V domains shown, chimeric) VH: EVQLVESGGGSVRPGRSLKLSCAAAGFTFSDYYMTWVRQAPTKGLEWVASINHDGGGTYYRDSVKGRFTISRDNARSSLYLQMDSLRSEDTGTYYCTTRAGWHWGQGVMVTVSS VL: DIQMTQSPASLSASLGETVSIECLASEDIYNYLTWYQQKPGKSPQVLIYSASGLQDGVPSRFSGSGSGRQYSLKINGLESEDAATYFCLQDSEYPLTFGSGTKLEIK	104	2.29	1.33	1.31	1.22	0.9	1.3
anti-GPNMB antibody GPN-48 (antibody, human IgG1, V domains shown, chimeric) VH: QVQLQQSGPELVKPGASVKLSCRASGYGFSSFWMNWVKQRPGKGLEWIGRIYPGKGDTLYNGKFKDKATLTADESSSTAYMQLSSLTSEDSAVYFCARSIYYYDYWYFDVWDTGTTVTVSS VL: DIVMTQSHKFMSTSVGDRVNITCKASQDVNSAIAWYQQKPGQSPKLLIYSASYRFIGVPDRFTGSGSGTGFTFTISSVQAEDLAVYYCQQHYTTPLTFGAGTKLELK	9.7	–	18.8	1.06	1.06	1.02	1.14
anti-GPNMB antibody GPN-52 (antibody, human IgG1, V domains shown, chimeric) VH: DVQLQESGPGLVKPSQTVFLTCTVTGISITTGNYRWSWIRQFPGNKLEWIGYIYYSGTITYNPSLTSRITITRDTPKNEFFLEMNSLTAEDTATYYCARDLTHWYFDVWGTGTTVTVSS VL: not shown	7.6	1.6	1.27	1.53	1.46	–	1.44

Other lines, results leading:

MFI fold over background [1] [fold]	EC50 [2] [nM]	EC50 [3] [nM]	CD40 (FoB) [4] [FoB]	CD80 (FoB) [4] [FoB]	GCase (FoB) [4] [FoB]	PDL1 (FoB) [4] [FoB]	Binder
105	–	0.75	–	–	1.01	–	anti-GPNMB antibody GPN-37 (antibody, human IgG1, V domains shown, chimeric) VH: EVQLVESGGGLVQPGRSLKLSCAASGFTFSSKSGMAWVRQAPTKGLEWVASISNGGGDTYYRDSVKGRFTISRDNAKNTQYLQMDSLRPEDTATYYCARHRDYGYDAYFDYWGQGVMVTVSS VL: DIQMTQSPASLSASLGETVTIECLASEDIYSSLAWYQQKPGKSPQLLIYDASSLQDGVPSRFSGSESGTQYSLEINSLQSEDAATYFCQQHHDYPYTFGAGTKLELK
20.7	5.38	0.99	1.01	1.03	–	1.03	anti-GPNMB antibody GPN-38 (antibody, human IgG1, V domains shown, chimeric) VH: QVQLQQPGAELVRPGTSVRLSCKASGYTFTSYWIHWVKQRPGRGLEWIGVIDPSDSYTNYNQQFNVKATLTVDTSSSAAYMQLSSLTSEDSAVYYCARGLITAVNWYFDVWGTGTTVTVSS VL: DIQMTQSPASLSTSVGEIVTITCRASENIYSYLTWYQQKQGKSPQLLVYNAKTLAEGVPSRFSGSGSGTQFSLKINSLQPEDFGTYYCQHHYGTPLTFGSGTKLEIK
18.6	–	7.25	1.61	1.5	1.46	1.52	anti-GPNMB antibody GPN-61 (antibody, human IgG1, V domains shown, chimeric) VH: DVQLQESGPGLVKPSQTVFLTCTVTGISITTGNYRWSWIRQFPGNKLEWIGYIYYSGTITYNPSLTSRTTITRDTPKNQFFLEMSSLTAEDTATYFCARDLRHWYFDVWGTGTTVTVSS VL: not shown
